Data on twelve molecules can be found in US20170145069A1 (Novo Nordisk, published 2017).

*1 amine or outer side, *2 acyl side, *3 side chain or, on linkers, in order; H or OH if unused. Where no end group is shown, it is not given here. Side-chain parts run from the residue outwards. [ ]: non-standard residue; d: D form. The star is where a group is joined. Undecanoyl(11-OPh(4-COOH)) = O=C(O)c1ccc(OCCCCCCCCCCC(=O)*)cc1; Decanoyl(10-(4-HOOC-PhO)) = O=C(O)c1ccc(OCCCCCCCCCC(=O)*)cc1; γGlu = O=C(O)[C@H](CCC(=O)[*:2])N[*:1]; 13‑carboxytridecanoyl = C14 diacid; AEEA = NCCOCCOCC(=O)O; Aib = CC(C)(N)C(=O)O

Assay [1] has as its target T1, human GLP-1 receptor (human, UniProt P43220 24-463). Description: cell-based or functional assay.
Assay [2] has as its target T1, human GLP-1 receptor. Description: SPA, displacement of 125I-GLP-1(7-36)NH2, BHK membranes, 0.001% HSA. The procedure:
Test compounds, membranes, SPA-particles and [¹²⁵I] ]-GLP-1(7-36)NH₂ were diluted in assay buffer. 50 ul (micro liter) buffer (“low albumin” experiment containing 0.001% HSA) was added to Optiplate, and 25 ul of test compounds were added. 5-10 μg membrane protein/sample was added (50 μl) corresponding to 0.1-0.2 mg protein/ml (to be preferably optimised for each membrane preparation). SPA-particles (Wheatgerm agglutinin SPA beads, Perkin Elmer, #RPNQ0001) were added in an amount of 0.5 mg/well (50 μl). The incubation was started with [¹²⁵I]-GLP-1]-(7-36)NH₂ (final concentration 0.06 nM corresponding to 49.880 DPM, 25 μl). The plates were sealed with PlateSealer and incubated for 120 minutes at 30° C. while shaking. The plates were centrifuged (1500 rpm, 10 min) and counted in Topcounter.
The IC₅₀ value was read from the curve as the concentration which displaces 50% of ¹²⁵I-GLP-1 from the receptor.

For assay [3], the target named is T1, human GLP-1 receptor. Description: cell-based or functional assay. This is another data set of the same source.

Consider H[Aib]EGTFTSDVSK([AEEA-AEEA-γGlu-13‑carboxytridecanoyl])YLEGQAAK([AEEA-AEEA-γGlu-13‑carboxytridecanoyl])EFIAWLVQGRG [Comparative compound of Example 22a: Compound of Example 141, Chem. 189, in WO 2012/062803], for which, in the assay with human GLP-1 receptor [1], the “In vitro potency (AlphaScreen cAMP; membranes) EC50” value turned out to be 1.14 nM. The 50% inhibitory concentration (IC50) (as a rule, the point on the concentration scale where inhibition reaches its midpoint) with human GLP-1 receptor [2] came out at 48.4 nM. Moreover, the “In vitro potency (CRE-luciferase) low albumin EC50” value with human GLP-1 receptor [3] is 0.174 nM.
On the same counts, the results for H[Aib]EGTFTSDVSK([Ser-Ser-Ser-Ser-Ser-Ser-γGlu-Undecanoyl(11-OPh(4-COOH))])YLEGQAAK([Ser-Ser-Ser-Ser-Ser-Ser-γGlu-Undecanoyl(11-OPh(4-COOH))])EFIAWLVQGRG are 0.146 nM, 0.54 nM and 0.0083 nM.

B1: Comparative compound of Example 1a: Compound of Example 2, Chem. 21, in WO 2011/080103 (peptide)
peptide: HXEGTFTSDVSSYLEGQAAKEFIAWLVRGRK
modifications: not fully specified; Aib at 8; eps-amino of Lys26 and Lys37 each acylated with 10-(4-carboxyphenoxy)decanoyl via the gGlu-2xOEG linker (as Example 1, only the linker differs)
In turn, B1 gave an IC50 in the assay with human GLP-1 receptor [2] of 2.27 nM. That is a single-digit nanomolar value.

B2: GLP-1 derivative of Example 30 (Chem. 49), N^eps26,N^eps37-diacylated [Imp^7,Aib^8,Arg^34,Lys^37]-GLP-1-(7-37)-peptide (peptide)
peptide: XXEGTFTSDVSSYLEGQAAKEFIAWLVRGRK
modifications: Imp (imidazopropionyl, des-amino histidine) at 7; Aib at 8; eps-amino of Lys26 and Lys37 each acylated with 12-(4-carboxyphenoxy)dodecanoyl-gGlu-Ser-Gly-Ser-eps-Lys
As for B2, the IC50 with human GLP-1 receptor [2] was found to be 0.18 nM. Besides, the “In vitro potency (CRE-luciferase) low albumin EC50” value with human GLP-1 receptor [3] was 0.0094 nM.
Regarding H[Aib]EGTFTSDVSK([AEEA-AEEA-γGlu-Decanoyl(10-(4-HOOC-PhO))])YLEEQAAK([AEEA-AEEA-γGlu-Decanoyl(10-(4-HOOC-PhO))])EFIAWLVQGRG [Comparative compound of Example 7a: Compound of Example 2, Chem. 21, in WO 2012/062803], in the assay with human GLP-1 receptor [1], the “In vitro potency (AlphaScreen cAMP; membranes) EC50” value worked out at 0.395 nM. In the assay with human GLP-1 receptor [2], this molecule came in with a concentration for half-maximal inhibition (IC50) of 7.03 nM. The “In vitro potency (CRE-luciferase) low albumin EC50” value with human GLP-1 receptor [3] was 0.017 nM.

B3: Comparative compound of Example 2a: Compound of Example 17, Chem. 36, in WO 2011/080103 (peptide)
peptide: HXEGTFTSDVSSYLEGQAAKEFIAHLVQGRK
modifications: Aib at 8; eps-amino of Lys26 and Lys37 each acylated with 10-(4-carboxyphenoxy)decanoyl via the gGlu-2xOEG linker (as Example 2, only the linker differs)
For the molecule B3, the “In vitro potency (AlphaScreen cAMP; membranes) EC50” value with human GLP-1 receptor [1] stood at 0.582 nM. In the assay with human GLP-1 receptor [2], this molecule registered a half-maximal inhibitory concentration (IC50) of 44.5 nM. Besides, the “In vitro potency (CRE-luciferase) low albumin EC50” value with human GLP-1 receptor [3] is 0.132 nM.

B4: GLP-1 derivative of Example 24 (Chem. 43), N^eps26,N^eps37-diacylated [Aib^8,Arg^34,Lys^37]-GLP-1-(7-37)-peptide (peptide)
peptide: HXEGTFTSDVSSYLEGQAAKEFIAWLVRGRK
modifications: Aib at 8; eps-amino of Lys26 and Lys37 each acylated with 12-(4-carboxyphenoxy)dodecanoyl-gGlu-Ser-Ser-Gly-Ser-Ser-Gly
Regarding B4, in the assay with human GLP-1 receptor [1], the “In vitro potency (AlphaScreen cAMP; membranes) EC50” value is 0.166 nM. The IC50 with human GLP-1 receptor [2] worked out at 0.19 nM. In addition, the “In vitro potency (CRE-luciferase) low albumin EC50” value in the assay with human GLP-1 receptor [3] was 0.0052 nM.

B5: GLP-1 derivative of Example 29 (Chem. 48), N^eps26,N^eps37-diacylated [Aib^8,Arg^34,Lys^37]-GLP-1-(7-37)-peptide (peptide)
peptide: HXEGTFTSDVSSYLEGQAAKEFIAWLVRGRK
modifications: Aib at 8; eps-amino of Lys26 and Lys37 each acylated with 12-(4-carboxyphenoxy)dodecanoyl-gGlu-Ser-Gly-Ser-eps-Lys
For B5, the “In vitro potency (AlphaScreen cAMP; membranes) EC50” value with human GLP-1 receptor [1] stood at 0.238 nM. The 50% inhibitory concentration (IC50) in the assay with human GLP-1 receptor [2] stood at 0.27 nM. For the same molecule, the “In vitro potency (CRE-luciferase) low albumin EC50” value with human GLP-1 receptor [3] turned out to be 0.005 nM.

B6: GLP-1 derivative of Example 12 (Chem. 31), N^eps26,N^eps37-diacylated [Aib^8,His^34,Lys^37]-GLP-1-(7-37)-peptide (peptide)
peptide: HXEGTFTSDVSSYLEGQAAKEFIAWLVHGRK
modifications: Aib at 8; eps-amino of Lys26 and Lys37 each acylated with 13-carboxytridecanoyl-gGlu-Ser-Ser-Gly-Ser-Ser-Gly
As for B6, the “In vitro potency (AlphaScreen cAMP; membranes) EC50” value in the assay with human GLP-1 receptor [1] was 0.145 nM. In addition, in the assay with human GLP-1 receptor [2], the IC50 came to 4.61 nM. Moreover, the “In vitro potency (CRE-luciferase) low albumin EC50” value in the assay with human GLP-1 receptor [3] amounted to 0.0098 nM.

B7: GLP-1 derivative of Example 2 (Chem. 21), N^eps26,N^eps37-diacylated [Aib^8,His^31,Gln^34,Lys^37]-GLP-1-(7-37)-peptide (peptide)
peptide: HXEGTFTSDVSSYLEGQAAKEFIAHLVQGRK
modifications: Aib at 8; eps-amino of Lys26 and Lys37 each acylated with 10-(4-carboxyphenoxy)decanoyl-gGlu-Ser-Ser-Gly-Ser-Ser-Gly
Regarding B7, the “In vitro potency (AlphaScreen cAMP; membranes) EC50” value with human GLP-1 receptor [1] was found to be 0.116 nM. The same molecule showed an IC50 in the assay with human GLP-1 receptor [2] of 8.99 nM. Besides, the “In vitro potency (CRE-luciferase) low albumin EC50” value with human GLP-1 receptor [3] stood at 0.023 nM.

B8: GLP-1 derivative of Example 25 (Chem. 44), N^eps26,N^eps37-diacylated [Aib^8,Arg^34,Lys^37]-GLP-1-(7-37)-peptide (peptide)
peptide: HXEGTFTSDVSSYLEGQAAKEFIAWLVRGRK
modifications: Aib at 8; eps-amino of Lys26 and Lys37 each acylated with 12-(4-carboxyphenoxy)dodecanoyl-gGlu-Ser-Ser-Gly-Ser-Ser-Gly-eps-Lys
In the case of B8, in the assay with human GLP-1 receptor [1], the “In vitro potency (AlphaScreen cAMP; membranes) EC50” value came to 0.252 nM. The molecule also showed a concentration for half-maximal inhibition (IC50) with human GLP-1 receptor [2] of 0.27 nM.

B9: GLP-1 derivative of Example 31 (Chem. 50), N^eps26,N^eps37-diacylated [Aib^8,Arg^34,Lys^37]-GLP-1-(7-37)-peptide (peptide)
peptide: HXEGTFTSDVSSYLEGQAAKEFIAWLVRGRK
modifications: Aib at 8; eps-amino of Lys26 and Lys37 each acylated with 11-(4-carboxyphenoxy)undecanoyl-gGlu-Ser-Ser-Gly-Ser-Ser-Gly
Regarding B9, in the assay with human GLP-1 receptor [1], the “In vitro potency (AlphaScreen cAMP; membranes) EC50” value is 0.027 nM. For the same molecule, the concentration for half-maximal inhibition (IC50) with human GLP-1 receptor [2] is 0.17 nM. In addition, the “In vitro potency (CRE-luciferase) low albumin EC50” value with human GLP-1 receptor [3] worked out at 0.0028 nM.
